Targets include Abl(Y253F)(h) (human) (UniProt P00519); CDK6/cyclinD3(h) (human) (UniProt Q00534); CHK2(R145W)(h) (human) (UniProt O96017); DAPK2(h) (human) (UniProt Q9UIK4); EphA4(h) (human) (UniProt P54764); EphA7(h) (human) (UniProt Q15375); FGFR1(h) (human) (UniProt P11362); NEK7(h) (human) (UniProt Q8TDX7); PKG1α(h) (human) (UniProt Q13976); SAPK2a(T106M)(h) (human) (UniProt Q16539).
Holding throughout (assay): cell-based or functional assay
Assay [1] deals with CDK7/cyclinH/MAT1(h) (human) (UniProt P50613).
Sequence of CDK7/cyclinH/MAT1(h) (human) (P50613 whole entry, chain 1 of 3): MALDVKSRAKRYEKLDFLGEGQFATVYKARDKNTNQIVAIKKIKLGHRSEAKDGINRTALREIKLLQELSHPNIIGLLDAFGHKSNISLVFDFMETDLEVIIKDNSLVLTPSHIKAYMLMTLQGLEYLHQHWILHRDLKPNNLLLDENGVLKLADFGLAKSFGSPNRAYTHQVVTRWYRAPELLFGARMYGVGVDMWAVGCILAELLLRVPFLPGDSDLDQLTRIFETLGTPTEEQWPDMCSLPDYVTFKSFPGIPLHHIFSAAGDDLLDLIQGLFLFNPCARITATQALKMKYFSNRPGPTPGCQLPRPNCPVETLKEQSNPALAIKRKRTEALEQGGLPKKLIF
Sequence of CDK7/cyclinH/MAT1(h) (human) (P51946 whole entry, chain 2 of 3, further chain): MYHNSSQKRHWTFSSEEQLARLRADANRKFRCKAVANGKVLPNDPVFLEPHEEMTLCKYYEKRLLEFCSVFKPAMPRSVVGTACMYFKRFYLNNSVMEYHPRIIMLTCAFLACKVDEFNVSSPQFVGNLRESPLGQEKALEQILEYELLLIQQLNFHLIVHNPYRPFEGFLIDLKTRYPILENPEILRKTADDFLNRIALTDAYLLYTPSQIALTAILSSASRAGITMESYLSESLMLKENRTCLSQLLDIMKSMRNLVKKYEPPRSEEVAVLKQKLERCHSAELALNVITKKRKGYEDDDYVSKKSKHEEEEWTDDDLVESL
Sequence of CDK7/cyclinH/MAT1(h) (human) (P51948 whole entry, chain 3 of 3, further chain): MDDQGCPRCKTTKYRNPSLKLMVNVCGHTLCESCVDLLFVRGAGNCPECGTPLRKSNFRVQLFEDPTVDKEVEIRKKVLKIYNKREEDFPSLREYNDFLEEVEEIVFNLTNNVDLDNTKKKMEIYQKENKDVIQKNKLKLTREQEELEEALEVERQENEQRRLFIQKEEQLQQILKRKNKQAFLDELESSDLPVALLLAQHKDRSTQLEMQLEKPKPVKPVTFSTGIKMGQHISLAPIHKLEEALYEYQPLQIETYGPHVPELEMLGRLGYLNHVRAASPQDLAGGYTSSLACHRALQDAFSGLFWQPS
Another assay addresses T1, EphA5(h) (human) (UniProt P54756).
T1 sequence (looked up): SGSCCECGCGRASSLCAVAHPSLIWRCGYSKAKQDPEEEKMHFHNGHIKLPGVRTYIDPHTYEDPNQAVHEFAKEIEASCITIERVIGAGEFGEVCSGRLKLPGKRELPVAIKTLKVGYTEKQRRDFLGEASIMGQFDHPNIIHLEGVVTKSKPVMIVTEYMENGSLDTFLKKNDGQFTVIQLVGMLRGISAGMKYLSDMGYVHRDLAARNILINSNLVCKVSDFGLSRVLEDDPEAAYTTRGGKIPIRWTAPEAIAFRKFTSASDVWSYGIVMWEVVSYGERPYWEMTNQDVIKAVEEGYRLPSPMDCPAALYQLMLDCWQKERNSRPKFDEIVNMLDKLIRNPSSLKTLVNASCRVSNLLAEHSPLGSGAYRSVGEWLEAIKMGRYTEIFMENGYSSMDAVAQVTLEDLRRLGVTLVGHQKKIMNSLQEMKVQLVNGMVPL

The target of a further assay is T2, PKCµ(h) (human) (UniProt Q15139).
T2 sequence (looked up): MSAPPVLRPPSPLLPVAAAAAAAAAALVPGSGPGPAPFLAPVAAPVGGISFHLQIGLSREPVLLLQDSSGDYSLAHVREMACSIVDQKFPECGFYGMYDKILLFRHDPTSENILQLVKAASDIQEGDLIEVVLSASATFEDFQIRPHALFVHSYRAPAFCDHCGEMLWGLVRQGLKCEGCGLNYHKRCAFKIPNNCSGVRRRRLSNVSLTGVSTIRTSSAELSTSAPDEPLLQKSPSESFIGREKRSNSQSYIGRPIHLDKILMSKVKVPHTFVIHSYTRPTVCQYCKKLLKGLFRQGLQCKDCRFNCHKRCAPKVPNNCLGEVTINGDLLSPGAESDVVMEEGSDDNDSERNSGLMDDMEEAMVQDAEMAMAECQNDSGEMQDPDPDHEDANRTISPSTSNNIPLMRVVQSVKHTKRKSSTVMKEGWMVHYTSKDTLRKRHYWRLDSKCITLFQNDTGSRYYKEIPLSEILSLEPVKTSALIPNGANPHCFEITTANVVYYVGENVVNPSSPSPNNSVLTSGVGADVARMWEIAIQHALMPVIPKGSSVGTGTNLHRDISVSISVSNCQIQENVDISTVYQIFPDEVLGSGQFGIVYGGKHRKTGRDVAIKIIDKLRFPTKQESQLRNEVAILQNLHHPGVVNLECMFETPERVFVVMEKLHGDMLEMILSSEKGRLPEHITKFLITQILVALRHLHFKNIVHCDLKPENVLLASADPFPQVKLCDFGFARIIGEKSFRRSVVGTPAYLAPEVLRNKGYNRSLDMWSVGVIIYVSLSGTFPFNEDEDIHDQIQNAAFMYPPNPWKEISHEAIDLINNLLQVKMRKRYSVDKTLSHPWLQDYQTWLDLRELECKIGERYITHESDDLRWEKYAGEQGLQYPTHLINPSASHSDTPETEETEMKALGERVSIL

The next assay has as its target T3, PKD2(h) (human) (UniProt Q9BZL6).
T3 sequence (looked up): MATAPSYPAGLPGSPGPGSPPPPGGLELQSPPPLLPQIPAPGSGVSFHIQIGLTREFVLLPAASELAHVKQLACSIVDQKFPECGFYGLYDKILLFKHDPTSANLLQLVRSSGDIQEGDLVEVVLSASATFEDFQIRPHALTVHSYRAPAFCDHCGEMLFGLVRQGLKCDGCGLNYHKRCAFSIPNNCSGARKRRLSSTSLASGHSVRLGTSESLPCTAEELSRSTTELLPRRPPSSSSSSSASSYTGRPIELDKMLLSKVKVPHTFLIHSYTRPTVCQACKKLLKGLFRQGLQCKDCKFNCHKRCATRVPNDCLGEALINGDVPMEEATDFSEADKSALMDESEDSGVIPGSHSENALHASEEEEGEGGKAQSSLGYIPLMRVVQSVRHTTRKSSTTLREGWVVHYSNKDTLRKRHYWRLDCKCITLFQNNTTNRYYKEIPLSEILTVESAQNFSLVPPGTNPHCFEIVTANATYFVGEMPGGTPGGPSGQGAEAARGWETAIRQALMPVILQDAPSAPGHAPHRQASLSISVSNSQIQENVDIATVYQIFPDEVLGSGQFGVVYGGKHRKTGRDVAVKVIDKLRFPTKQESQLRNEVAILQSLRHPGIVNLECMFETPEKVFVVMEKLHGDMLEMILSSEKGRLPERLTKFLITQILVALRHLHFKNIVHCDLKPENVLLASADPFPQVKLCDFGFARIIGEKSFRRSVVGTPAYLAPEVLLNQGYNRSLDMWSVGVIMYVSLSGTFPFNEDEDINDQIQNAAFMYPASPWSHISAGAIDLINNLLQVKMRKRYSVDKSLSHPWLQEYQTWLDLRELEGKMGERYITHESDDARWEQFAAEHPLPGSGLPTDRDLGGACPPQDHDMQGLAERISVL

Sequence of CDK6/cyclinD3(h) (human) (Q00534 whole entry, chain 1 of 2): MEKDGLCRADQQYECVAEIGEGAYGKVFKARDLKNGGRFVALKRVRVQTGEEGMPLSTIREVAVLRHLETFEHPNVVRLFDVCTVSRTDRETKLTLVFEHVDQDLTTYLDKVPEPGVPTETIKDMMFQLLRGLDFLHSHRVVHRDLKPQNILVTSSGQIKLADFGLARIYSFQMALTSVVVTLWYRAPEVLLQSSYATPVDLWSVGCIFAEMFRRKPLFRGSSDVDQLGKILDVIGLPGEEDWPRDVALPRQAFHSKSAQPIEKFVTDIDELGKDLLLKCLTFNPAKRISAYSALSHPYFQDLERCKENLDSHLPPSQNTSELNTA
Sequence of CDK6/cyclinD3(h) (human) (P30281 whole entry, chain 2 of 2, further chain): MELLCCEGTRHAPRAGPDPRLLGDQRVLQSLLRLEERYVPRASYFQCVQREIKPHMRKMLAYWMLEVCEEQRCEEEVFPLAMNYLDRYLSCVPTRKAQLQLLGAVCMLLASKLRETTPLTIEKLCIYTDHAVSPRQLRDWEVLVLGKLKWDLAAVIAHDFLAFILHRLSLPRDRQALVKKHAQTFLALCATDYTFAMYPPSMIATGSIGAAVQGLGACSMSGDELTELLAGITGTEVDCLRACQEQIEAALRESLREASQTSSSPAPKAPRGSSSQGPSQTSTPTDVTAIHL
Sequence of CHK2(R145W)(h) (human) (O96017 5-543 R145W limits assumed): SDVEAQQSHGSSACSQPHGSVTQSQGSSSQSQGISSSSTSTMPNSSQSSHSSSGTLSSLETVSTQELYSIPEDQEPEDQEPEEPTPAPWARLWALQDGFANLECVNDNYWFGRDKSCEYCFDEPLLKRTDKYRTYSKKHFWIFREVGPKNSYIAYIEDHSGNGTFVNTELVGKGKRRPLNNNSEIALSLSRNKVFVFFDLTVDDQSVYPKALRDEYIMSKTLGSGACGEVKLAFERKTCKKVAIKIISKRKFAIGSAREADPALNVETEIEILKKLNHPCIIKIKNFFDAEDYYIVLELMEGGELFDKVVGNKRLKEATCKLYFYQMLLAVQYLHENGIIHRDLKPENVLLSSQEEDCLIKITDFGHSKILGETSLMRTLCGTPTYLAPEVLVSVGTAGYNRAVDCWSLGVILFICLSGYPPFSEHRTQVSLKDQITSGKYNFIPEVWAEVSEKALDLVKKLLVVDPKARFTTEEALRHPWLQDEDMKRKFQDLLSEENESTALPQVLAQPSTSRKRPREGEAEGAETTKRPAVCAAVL
Sequence of EphA4(h) (human) (P54764 570-986 limits assumed): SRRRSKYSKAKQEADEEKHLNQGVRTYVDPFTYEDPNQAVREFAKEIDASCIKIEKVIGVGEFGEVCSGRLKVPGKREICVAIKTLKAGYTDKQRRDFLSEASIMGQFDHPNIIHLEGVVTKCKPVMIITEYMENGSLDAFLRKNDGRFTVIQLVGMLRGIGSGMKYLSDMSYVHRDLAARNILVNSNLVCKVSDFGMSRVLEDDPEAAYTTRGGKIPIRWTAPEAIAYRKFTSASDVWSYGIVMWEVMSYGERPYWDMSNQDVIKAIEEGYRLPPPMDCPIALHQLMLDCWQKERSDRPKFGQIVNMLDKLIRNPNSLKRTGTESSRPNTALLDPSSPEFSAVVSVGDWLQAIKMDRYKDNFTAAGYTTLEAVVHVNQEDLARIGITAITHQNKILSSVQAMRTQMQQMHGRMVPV
Sequence of SAPK2a(T106M)(h) (human) (Q16539 whole entry T106M): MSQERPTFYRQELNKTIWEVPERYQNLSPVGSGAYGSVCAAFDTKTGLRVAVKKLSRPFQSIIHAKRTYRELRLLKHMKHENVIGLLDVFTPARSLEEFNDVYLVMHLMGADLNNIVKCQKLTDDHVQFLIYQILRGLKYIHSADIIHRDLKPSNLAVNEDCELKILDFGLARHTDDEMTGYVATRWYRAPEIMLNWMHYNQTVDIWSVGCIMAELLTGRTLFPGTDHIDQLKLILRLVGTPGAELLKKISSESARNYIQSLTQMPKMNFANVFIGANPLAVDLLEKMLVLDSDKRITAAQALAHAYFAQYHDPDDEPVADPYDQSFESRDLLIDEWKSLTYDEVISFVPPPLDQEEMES
Sequence of FGFR1(h) (human) (P11362 456-765 limits assumed): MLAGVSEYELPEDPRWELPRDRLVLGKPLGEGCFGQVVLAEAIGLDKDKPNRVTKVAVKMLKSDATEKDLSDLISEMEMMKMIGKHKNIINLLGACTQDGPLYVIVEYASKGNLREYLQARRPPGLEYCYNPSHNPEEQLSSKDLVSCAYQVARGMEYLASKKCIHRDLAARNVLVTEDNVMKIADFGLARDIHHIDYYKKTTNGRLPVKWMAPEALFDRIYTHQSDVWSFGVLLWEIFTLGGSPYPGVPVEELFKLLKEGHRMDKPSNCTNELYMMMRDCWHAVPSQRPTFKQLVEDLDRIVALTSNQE
Sequence of Abl(Y253F)(h) (human) (P00519 27-1130 Y253F limits assumed): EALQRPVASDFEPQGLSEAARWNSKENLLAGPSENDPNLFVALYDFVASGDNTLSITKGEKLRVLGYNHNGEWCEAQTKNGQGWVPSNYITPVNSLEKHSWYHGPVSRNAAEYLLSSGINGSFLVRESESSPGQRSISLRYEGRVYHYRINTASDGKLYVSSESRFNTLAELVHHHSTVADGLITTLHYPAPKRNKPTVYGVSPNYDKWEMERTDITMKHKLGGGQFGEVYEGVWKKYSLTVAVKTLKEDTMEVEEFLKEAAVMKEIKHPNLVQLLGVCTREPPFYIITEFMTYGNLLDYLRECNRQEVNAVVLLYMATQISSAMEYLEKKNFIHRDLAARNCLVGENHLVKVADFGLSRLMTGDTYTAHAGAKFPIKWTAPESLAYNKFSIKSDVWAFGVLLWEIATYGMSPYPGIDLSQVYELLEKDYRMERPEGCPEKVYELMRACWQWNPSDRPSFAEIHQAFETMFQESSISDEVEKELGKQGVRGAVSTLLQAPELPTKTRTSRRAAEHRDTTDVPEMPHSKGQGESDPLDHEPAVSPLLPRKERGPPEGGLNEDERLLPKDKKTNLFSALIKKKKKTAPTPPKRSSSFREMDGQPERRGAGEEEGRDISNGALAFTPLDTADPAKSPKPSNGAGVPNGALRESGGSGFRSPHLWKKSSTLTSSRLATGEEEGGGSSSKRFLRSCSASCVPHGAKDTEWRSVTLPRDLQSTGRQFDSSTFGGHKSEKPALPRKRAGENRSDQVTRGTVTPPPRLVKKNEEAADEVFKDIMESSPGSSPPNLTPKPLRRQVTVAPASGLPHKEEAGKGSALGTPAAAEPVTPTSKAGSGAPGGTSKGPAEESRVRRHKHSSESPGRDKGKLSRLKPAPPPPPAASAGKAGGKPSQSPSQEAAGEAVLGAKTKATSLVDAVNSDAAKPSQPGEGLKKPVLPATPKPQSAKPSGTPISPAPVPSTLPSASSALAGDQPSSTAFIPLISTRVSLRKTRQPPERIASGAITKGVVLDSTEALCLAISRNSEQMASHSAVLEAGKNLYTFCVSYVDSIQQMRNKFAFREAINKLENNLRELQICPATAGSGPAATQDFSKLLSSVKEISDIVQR

Turning to MMI-0400 (peptide), the % activity at 100 µM with Abl(Y253F)(h) (human) is 78%; with CDK6/cyclinD3(h) (human), 85%; in assay [1], 47%; with CHK2(R145W)(h) (human), 31%; in the assay with DAPK2(h) (human), 16%; with EphA4(h) (human) it was 65%. Moreover, the % activity at 100 µM amounted to 24% in the assay with EphA5(h) (human); 222% with EphA7(h) (human); 59% with FGFR1(h) (human); 87% in the assay with NEK7(h) (human); 14% with PKCµ(h) (human); 25% in the assay with PKD2(h) (human). The % activity at 100 µM with PKG1α(h) (human) was determined as 58%; with SAPK2a(T106M)(h) (human), 99%.
Turning to MMI-0500 (peptide), the % activity at 100 µM in the assay with Abl(Y253F)(h) (human) was 29%; with CDK6/cyclinD3(h) (human) it was 23%; in [1], 15%; in the assay with CHK2(R145W)(h) (human), 3%; in the assay with DAPK2(h) (human), 3%; in the assay with EphA4(h) (human), 48%. The % activity at 100 µM was 42% with EphA5(h) (human); 189% with EphA7(h) (human); 18% in the assay with FGFR1(h) (human); 89% with NEK7(h) (human); 10% with PKCµ(h) (human); 10% in the assay with PKD2(h) (human). Besides, the % activity at 100 µM with PKG1α(h) (human) worked out at 25%; in the assay with SAPK2a(T106M)(h) (human), 32%.
For the substance MMI-0300 (peptide), the % activity at 100 µM with Abl(Y253F)(h) (human) was determined as 86%; with CDK6/cyclinD3(h) (human), 86%; in assay [1] it was 65%; with CHK2(R145W)(h) (human), 33%; with DAPK2(h) (human), 32%; with EphA4(h) (human), 88%. Further, the % activity at 100 µM with EphA5(h) (human) came to 18%; in the assay with EphA7(h) (human), 159%; with FGFR1(h) (human), 55%; with NEK7(h) (human), 84%; in the assay with PKCµ(h) (human), 22%; with PKD2(h) (human) it was 33%. For the same substance, the % activity at 100 µM in the assay with PKG1α(h) (human) was 64%; with SAPK2a(T106M)(h) (human), 97%.

The record behind these values is patent US20150064134A1.
